T1: human Axl receptor of Axl+ human cell lines (MDA-MB-231, NCI-H1299, HeLa) (human, UniProt P30530 26-894)
T1 construct: also called Axl+ cells; Axl-positive cells
T1 sequence: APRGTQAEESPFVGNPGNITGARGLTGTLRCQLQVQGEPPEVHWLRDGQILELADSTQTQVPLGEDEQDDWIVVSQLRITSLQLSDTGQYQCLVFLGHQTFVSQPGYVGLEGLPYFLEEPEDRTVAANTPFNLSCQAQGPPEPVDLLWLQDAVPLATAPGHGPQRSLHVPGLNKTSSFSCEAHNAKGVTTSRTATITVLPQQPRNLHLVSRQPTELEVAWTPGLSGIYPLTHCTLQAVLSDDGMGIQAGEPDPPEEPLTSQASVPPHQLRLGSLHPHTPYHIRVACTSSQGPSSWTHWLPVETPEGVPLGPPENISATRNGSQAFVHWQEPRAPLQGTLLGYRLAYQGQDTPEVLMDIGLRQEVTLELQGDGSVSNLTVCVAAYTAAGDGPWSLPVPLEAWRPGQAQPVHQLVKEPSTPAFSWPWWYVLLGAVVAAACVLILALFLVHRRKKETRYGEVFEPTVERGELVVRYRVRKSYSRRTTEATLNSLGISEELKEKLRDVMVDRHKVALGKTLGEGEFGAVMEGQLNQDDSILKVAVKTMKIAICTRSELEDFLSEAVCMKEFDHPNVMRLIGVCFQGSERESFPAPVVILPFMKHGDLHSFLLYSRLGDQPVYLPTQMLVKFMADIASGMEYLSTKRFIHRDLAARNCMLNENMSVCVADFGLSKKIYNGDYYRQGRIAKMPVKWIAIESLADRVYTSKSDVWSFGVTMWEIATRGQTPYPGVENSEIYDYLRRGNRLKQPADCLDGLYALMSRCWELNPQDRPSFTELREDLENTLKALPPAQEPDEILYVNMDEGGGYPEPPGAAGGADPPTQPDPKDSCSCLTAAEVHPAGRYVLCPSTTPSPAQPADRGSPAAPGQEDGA

T2: recombinant human Mer-Fc chimera (R&D Systems, Cat. no. 891-MR) (human, UniProt Q12866 21-499, limits assumed)
T2 construct: Bought soluble Fc chimera; also called rhMer-Fc; rhMer; Fc part of the bought chimera not given
T2 sequence (looked up): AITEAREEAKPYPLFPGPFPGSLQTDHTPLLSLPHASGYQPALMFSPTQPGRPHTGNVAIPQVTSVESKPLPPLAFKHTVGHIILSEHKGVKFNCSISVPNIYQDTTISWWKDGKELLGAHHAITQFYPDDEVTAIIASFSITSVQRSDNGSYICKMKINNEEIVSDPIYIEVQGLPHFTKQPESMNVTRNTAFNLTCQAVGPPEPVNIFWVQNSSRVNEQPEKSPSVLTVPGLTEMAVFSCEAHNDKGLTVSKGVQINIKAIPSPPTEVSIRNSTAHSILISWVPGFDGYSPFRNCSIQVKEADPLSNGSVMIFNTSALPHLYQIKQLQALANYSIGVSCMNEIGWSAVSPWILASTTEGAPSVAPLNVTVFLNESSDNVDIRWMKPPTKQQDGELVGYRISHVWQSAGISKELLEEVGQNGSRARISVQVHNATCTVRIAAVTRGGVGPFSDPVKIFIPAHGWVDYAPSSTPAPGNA

T3: recombinant human Tyro3/Dtk-Fc chimera (R&D Systems, Cat. no. 859-DK) (human, UniProt Q06418 41-428)
T3 construct: Bought soluble Fc chimera; also called rhTyro3-Fc; rhTyro3; Fc part of the bought chimera not given
T3 sequence: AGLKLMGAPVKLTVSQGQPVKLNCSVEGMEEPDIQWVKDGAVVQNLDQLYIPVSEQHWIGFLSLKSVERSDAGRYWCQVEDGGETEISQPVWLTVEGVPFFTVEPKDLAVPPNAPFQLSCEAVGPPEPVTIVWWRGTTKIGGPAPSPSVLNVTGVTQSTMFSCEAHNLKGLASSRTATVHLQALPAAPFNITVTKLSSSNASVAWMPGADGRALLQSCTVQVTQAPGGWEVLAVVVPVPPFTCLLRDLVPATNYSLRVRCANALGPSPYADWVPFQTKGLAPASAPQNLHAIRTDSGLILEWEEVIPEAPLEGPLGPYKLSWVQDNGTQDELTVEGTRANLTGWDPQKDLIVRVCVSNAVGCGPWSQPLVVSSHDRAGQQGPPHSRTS

T4: recombinant mouse Axl-Fc chimera (R&D Systems, Cat. no. 854-AX) (mouse, UniProt Q00993 19-443)
T4 construct: Bought soluble Fc chimera; also called rmAxl-Fc; rmAxl; Fc part of the bought chimera not given
T4 sequence: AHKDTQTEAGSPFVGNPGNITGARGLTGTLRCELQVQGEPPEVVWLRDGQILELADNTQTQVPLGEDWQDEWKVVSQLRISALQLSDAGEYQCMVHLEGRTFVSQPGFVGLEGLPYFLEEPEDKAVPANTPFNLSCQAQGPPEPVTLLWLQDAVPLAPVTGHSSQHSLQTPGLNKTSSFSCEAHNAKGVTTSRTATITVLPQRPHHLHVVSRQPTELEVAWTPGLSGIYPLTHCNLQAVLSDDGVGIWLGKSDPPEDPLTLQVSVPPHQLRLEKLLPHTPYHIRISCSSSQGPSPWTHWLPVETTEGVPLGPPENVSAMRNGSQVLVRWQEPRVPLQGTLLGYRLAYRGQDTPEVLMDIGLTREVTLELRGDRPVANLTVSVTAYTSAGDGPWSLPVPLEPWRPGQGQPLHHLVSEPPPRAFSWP

T5: recombinant human Axl-Fc chimera (R&D Systems, Cat. no. 154-AL) (human, UniProt P30530 26-451)
T5 construct: Bought reagent; also called rhAxl-Fc; rhAxl; not shown: human IgG1 Fc domain
T5 sequence: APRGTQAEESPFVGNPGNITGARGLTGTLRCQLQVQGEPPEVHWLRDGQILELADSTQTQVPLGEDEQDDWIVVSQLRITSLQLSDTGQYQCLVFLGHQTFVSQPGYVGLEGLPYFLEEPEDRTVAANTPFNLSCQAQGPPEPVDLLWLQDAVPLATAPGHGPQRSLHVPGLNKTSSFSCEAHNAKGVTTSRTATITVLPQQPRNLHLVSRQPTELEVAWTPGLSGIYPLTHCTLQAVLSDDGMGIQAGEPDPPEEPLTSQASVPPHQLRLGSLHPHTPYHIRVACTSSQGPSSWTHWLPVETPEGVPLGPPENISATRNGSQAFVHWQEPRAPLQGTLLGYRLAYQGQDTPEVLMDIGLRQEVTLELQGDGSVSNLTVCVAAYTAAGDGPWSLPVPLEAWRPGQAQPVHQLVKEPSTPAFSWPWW

B1: mouse anti-Axl monoclonal antibody 1H12 (antibody, V domains shown)
VH: EVKLVESGGDLVKPGGSLKLSCAASGFTFSSYGMSWVRQTPDKRLEWVATISSGGSYTYYPDSVKGRFTISRDNAKNTLYLQMSSLKSEDTAMYYCARHPIYYTYDDTMDYWGQGTSVTVSS
VL: DIVLTQSPAIMAASPGEKVTMTCSASSSVSSGNFHWYQQKPGTSPKLWIYRTSNLASGVPARFSGSGSGTSYSLTISSMEAEDAATYYCQQWSGYPWTFGGGTKLEIK
notes: also called MAb 1H12; m 1H12
B2: chimeric (mouse variable/human constant IgG1) monoclonal antibody ch1H12 (antibody, V domains shown)
VH: B1 VH
VL: B1 VL
notes: also called chimeric MAb ch1H12; chimeric monoclonal antibody 1H12; not shown: constant domains of the human IgG1 heavy chain; human light chain constant domain (C-kappa)

Assays:
[1] = biological target: T1, human Axl receptor of Axl+ human cell …; assay: flow cytometry on MDA-MB-231 cells, detection with APC-conjugated donkey anti-mouse IgG (H+L) F(ab')2
Description: The cell staining was measured using Accuri C6 flow cytometer (BD Biosciences).
Trypsin was quenched by adding into the tissue flask the complete medium followed by washing the cells with PBS. During the washing steps, the cells were collected by centrifugation at 200 g for 5 min. The antibody was diluted for total concentration in PBS containing 0.02% bovine serum albumin (BSA). Cell staining was performed using 200 μL of cell suspension comprising 10⁵ cells for 20 min at room temperature. The cell-bound antibodies were detected with APC-conjugated donkey anti-human or anti-mouse, respectively, IgG (H+L) F(ab′)₂ fragments (Jackson ImmunoResearch). After two washing steps with PBS/0.02% BSA, the cells were resuspended in 200 μL and kept on ice before analysis on Accuri C6 flow cytometer (BD Biosciences).

[2] = biological target: T2, recombinant human Mer-Fc chimera (R&D …); assay: SPR (Biacore 3000), rhMer-Fc immobilised on CM5 at 303.6 RU, MAb 1H12 injected
Description: (§1) All binding experiments were performed using Biacore 3000 instrument (GE Healthcare) at 25° C. […] The Biacore run was performed in an automatic mode using Binding analysis wizard.

[3] = biological target: T3, recombinant human Tyro3/Dtk-Fc chimera …; assay: SPR (Biacore 3000), rhTyro3/Dtk-Fc immobilised on CM5 at 364.0 RU, MAb 1H12 injected
Description: as §1

[4] = biological target: T4, recombinant mouse Axl-Fc chimera (R&D …); assay: SPR (Biacore 3000), rmAxl-Fc immobilised on CM5 at 2,115.9 RU, MAb 1H12 injected [upper panel 1H12]
Description: The binding experiments were performed using Biacore 3000 instrument (GE Healthcare) at 25° C. […] The Biacore run was performed in an automatic mode using Binding Analysis wizard.

[5] = biological target: T5, recombinant human Axl-Fc chimera (R&D …); assay: SPR (Biacore 3000), rhAxl-Fc immobilised on CM5 at 190 RU, MAb 1H12 at 1.3-666.7 nM, 25 °C, BIAevaluation fit [table under the sensorgrams]
Description: (§2) After each cycle, the surface was regenerated by 30 sec injection of a regeneration solution (10 mM HCl, 1 M NaCl) at flow rate 50 μL/min.
(§3) The equilibrium dissociation constant (KD) was calculated as the koff/kₒₙ ratio.

[6] = biological target: T5, recombinant human Axl-Fc chimera (R&D …); assay: SPR (Biacore 3000, 25 °C), rhAxl-Fc immobilised at 190 RU, 1H12 1.3-666.7 nM
Description: as §2
(§4) The equilibrium dissociation constant (KD) was calculated as the koff/kₒₙ ratio. The half-life (t_{1/2}) of the formed antibody-antigen complexes was calculated as the In2/koff ratio.

[7] = biological target: T5, recombinant human Axl-Fc chimera (R&D …); assay: SPR (Biacore 3000, 25 °C), calculated as ln2/koff
[8] = biological target: T5, recombinant human Axl-Fc chimera (R&D …); assay: SPR (Biacore 3000, 25 °C), rhAxl-Fc immobilised at 190 RU, 1H12 1.3-666.7 nM, KD as koff/kon
Description: as §2, §3

[9] = biological target: T5, recombinant human Axl-Fc chimera (R&D …); assay: SPR (Biacore 3000), rhAxl-Fc immobilised on CM5 at 190 RU, ch1H12 at 1.3-666.7 nM, 25 °C, 1:1 Langmuir fit [table under the sensorgrams]
Description: as §2, §4

[10] = biological target: T5, recombinant human Axl-Fc chimera (R&D …); assay: SPR (Biacore 3000, 25 °C), comparison of KD with parental murine 1H12
[11] = biological target: T5, recombinant human Axl-Fc chimera (R&D …); assay: SPR (Biacore 3000, 25 °C), rhAxl-Fc immobilised at 190 RU, ch1H12 1.3-666.7 nM, 1:1 Langmuir model, KD as koff/kon
Description: as §2, §3

[12] = biological target: T5, recombinant human Axl-Fc chimera (R&D …); assay: SPR (Biacore 3000, 25 °C), rhAxl-Fc immobilised at 190 RU, ch1H12 1.3-666.7 nM, 1:1 Langmuir model
Description: as §2, §3

[13] = biological target: T1, human Axl receptor of Axl+ human cell …; assay: flow cytometry on MDA-MB-231 cells, detection with APC-conjugated donkey anti-human IgG (H+L) F(ab')2

Binder	EC50 (read off the curve) [1] [pM]	binding result [2]	binding result [3]	binding result [4]	kon [5] [M⁻¹ s⁻¹]	koff [6] [s⁻¹]	half-life of the 1H12/Axl complex [7] [h]	Kd [8] [pM]	kon [9] [M⁻¹ s⁻¹]	fold lower KD than the parental murine antibody 1H12 [10] [fold]	Kd [11] [pM]	koff [12] [s⁻¹]	EC50 (read off the curve) [13] [pM]	half-life of the ch1H12/Axl complex [7] [h]
B1	~900	no binding (tested: 10 µg/mL)	no binding (tested: 10 µg/mL)	no binding (tested: 10 µg/mL)	214000	1.07e-05	18	49.8	–	–	–	–	–	–
B2	–	–	–	–	–	–	–	–	271000	4.5	11	2.99e-06	~600	64.4

From patent US20170129957A1 (BERGENBIO ASA, published 2017)
